Test results from ChEMBL document CHEMBL1212722, “Designer enzymes for glycosphingolipid synthesis by directed evolution” (Nat Chem Biol, 2009).
Where a chain is given by its changes, count along the chain named. In names and notes the source's numbering stands.

Legend:
[1] = substrate: CC(=O)N[C@H]1[C@H](O[C@@H]2[C@H](O[C@]3(C(=O)O)C[C@H](O)[C@@H](NC(C)=O)[C@H]([C@@H](O)[C@@H](O)CO)O3)[C@@H](O)[C@H](O[C@H]3[C@H](O)[C@@H](O)[C@@H](F)O[C@@H]3CO)O[C@@H]2CO)O[C@H](CO)[C@H](O)[C@@H]1O[C@@H]1O[C@H](CO)[C@H](O)[C@H](O)[C@H]1O; assay: (§1) Activity of Rhodococcus sp. M777 Endoglycoceramidase 2 N334S mutant
[2] = substrate: CCCCCCCCCCCCC/C=C/[C@@H](O)[C@@H](N)CO; assay: as §1
[3] = substrate: CC(=O)N[C@H]1[C@H](O[C@@H]2[C@H](O[C@]3(C(=O)O)C[C@H](O)[C@@H](NC(C)=O)[C@H]([C@@H](O)[C@@H](O)CO)O3)[C@@H](O)[C@H](O[C@H]3[C@H](O)[C@@H](O)[C@@H](F)O[C@@H]3CO)O[C@@H]2CO)O[C@H](CO)[C@H](O)[C@@H]1O[C@@H]1O[C@H](CO)[C@H](O)[C@H](O)[C@H]1O; assay: (§2) Ratio of Kcat to Km of Activity of Rhodococcus sp. M777 Endoglycoceramidase 2 N334S mutant
[4] = substrate: CCCCCCCCCCCCC/C=C/[C@@H](O)[C@@H](N)CO; assay: as §2
[5] = substrate: CC(=O)N[C@H]1[C@H](O[C@@H]2[C@H](O[C@]3(C(=O)O)C[C@H](O)[C@@H](NC(C)=O)[C@H]([C@@H](O)[C@@H](O)CO)O3)[C@@H](O)[C@H](O[C@H]3[C@H](O)[C@@H](O)[C@@H](F)O[C@@H]3CO)O[C@@H]2CO)O[C@H](CO)[C@H](O)[C@@H]1O[C@@H]1O[C@H](CO)[C@H](O)[C@H](O)[C@H]1O; assay: (§3) Ratio of Kcat to Km of Activity of Rhodococcus sp. M777 Endoglycoceramidase 2 D314Y mutant
[6] = substrate: CCCCCCCCCCCCC/C=C/[C@@H](O)[C@@H](N)CO; assay: as §3
[7] = substrate: CC(=O)N[C@H]1[C@H](O[C@@H]2[C@H](O[C@]3(C(=O)O)C[C@H](O)[C@@H](NC(C)=O)[C@H]([C@@H](O)[C@@H](O)CO)O3)[C@@H](O)[C@H](O[C@H]3[C@H](O)[C@@H](O)[C@@H](F)O[C@@H]3CO)O[C@@H]2CO)O[C@H](CO)[C@H](O)[C@@H]1O[C@@H]1O[C@H](CO)[C@H](O)[C@H](O)[C@H]1O; assay: (§4) Activity of Rhodococcus sp. M777 Endoglycoceramidase 2 D314Y mutant
[8] = substrate: CCCCCCCCCCCCC/C=C/[C@@H](O)[C@@H](N)CO; assay: as §4
[9] = substrate: CC(=O)N[C@H]1[C@H](O[C@@H]2[C@H](O[C@]3(C(=O)O)C[C@H](O)[C@@H](NC(C)=O)[C@H]([C@@H](O)[C@@H](O)CO)O3)[C@@H](O)[C@H](O[C@H]3[C@H](O)[C@@H](O)[C@@H](F)O[C@@H]3CO)O[C@@H]2CO)O[C@H](CO)[C@H](O)[C@@H]1O[C@@H]1O[C@H](CO)[C@H](O)[C@H](O)[C@H]1O; assay: (§5) Ratio of Kcat to Km of Activity of Rhodococcus sp. M777 Endoglycoceramidase 2 P394S mutant
[10] = substrate: CCCCCCCCCCCCC/C=C/[C@@H](O)[C@@H](N)CO; assay: as §5
[11] = substrate: CC(=O)N[C@H]1[C@H](O[C@@H]2[C@H](O[C@]3(C(=O)O)C[C@H](O)[C@@H](NC(C)=O)[C@H]([C@@H](O)[C@@H](O)CO)O3)[C@@H](O)[C@H](O[C@H]3[C@H](O)[C@@H](O)[C@@H](F)O[C@@H]3CO)O[C@@H]2CO)O[C@H](CO)[C@H](O)[C@@H]1O[C@@H]1O[C@H](CO)[C@H](O)[C@H](O)[C@H]1O; assay: (§6) Activity of Rhodococcus sp. M777 Endoglycoceramidase 2 P394S mutant
[12] = substrate: CCCCCCCCCCCCC/C=C/[C@@H](O)[C@@H](N)CO; assay: as §6
[13] = substrate: CC(=O)N[C@H]1[C@H](O[C@@H]2[C@H](O[C@]3(C(=O)O)C[C@H](O)[C@@H](NC(C)=O)[C@H]([C@@H](O)[C@@H](O)CO)O3)[C@@H](O)[C@H](O[C@H]3[C@H](O)[C@@H](O)[C@@H](F)O[C@@H]3CO)O[C@@H]2CO)O[C@H](CO)[C@H](O)[C@@H]1O[C@@H]1O[C@H](CO)[C@H](O)[C@H](O)[C@H]1O; assay: (§7) Ratio of Kcat to Km of Activity of Rhodococcus sp. M777 Endoglycoceramidase 2 A153T D314Y mutant
[14] = substrate: CCCCCCCCCCCCC/C=C/[C@@H](O)[C@@H](N)CO; assay: as §7
[15] = substrate: CC(=O)N[C@H]1[C@H](O[C@@H]2[C@H](O[C@]3(C(=O)O)C[C@H](O)[C@@H](NC(C)=O)[C@H]([C@@H](O)[C@@H](O)CO)O3)[C@@H](O)[C@H](O[C@H]3[C@H](O)[C@@H](O)[C@@H](F)O[C@@H]3CO)O[C@@H]2CO)O[C@H](CO)[C@H](O)[C@@H]1O[C@@H]1O[C@H](CO)[C@H](O)[C@H](O)[C@H]1O; assay: (§8) Activity of Rhodococcus sp. M777 Endoglycoceramidase 2 A153T D314Y mutant
[16] = substrate: CCCCCCCCCCCCC/C=C/[C@@H](O)[C@@H](N)CO; assay: as §8
[17] = substrate: CC(=O)N[C@H]1[C@H](O[C@@H]2[C@H](O[C@]3(C(=O)O)C[C@H](O)[C@@H](NC(C)=O)[C@H]([C@@H](O)[C@@H](O)CO)O3)[C@@H](O)[C@H](O[C@H]3[C@H](O)[C@@H](O)[C@@H](F)O[C@@H]3CO)O[C@@H]2CO)O[C@H](CO)[C@H](O)[C@@H]1O[C@@H]1O[C@H](CO)[C@H](O)[C@H](O)[C@H]1O; assay: (§9) Ratio of Kcat to Km of Activity of Rhodococcus sp. M777 Endoglycoceramidase 2 A153T D314Y R177H mutant
[18] = substrate: CCCCCCCCCCCCC/C=C/[C@@H](O)[C@@H](N)CO; assay: as §9
[19] = substrate: CC(=O)N[C@H]1[C@H](O[C@@H]2[C@H](O[C@]3(C(=O)O)C[C@H](O)[C@@H](NC(C)=O)[C@H]([C@@H](O)[C@@H](O)CO)O3)[C@@H](O)[C@H](O[C@H]3[C@H](O)[C@@H](O)[C@@H](F)O[C@@H]3CO)O[C@@H]2CO)O[C@H](CO)[C@H](O)[C@@H]1O[C@@H]1O[C@H](CO)[C@H](O)[C@H](O)[C@H]1O; assay: (§10) Activity of Rhodococcus sp. M777 Endoglycoceramidase 2 A153T D314Y R177H mutant
[20] = substrate: CCCCCCCCCCCCC/C=C/[C@@H](O)[C@@H](N)CO; assay: as §10

B1: Endoglycoceramidase II (Rhodococcus sp), A0ACD6B832 N334S (protein)
chain: MRRTRLVSLIVTGSLVFGGGVAAAQSSLAASGSGSGSGTALTPSYLKDDDGRSLILRGFNTASSAKSAPDGMPQFTEADLAREYADMGTNFVRFLISWRSVEPAPGVYDQQYLDRVEDRVGWYAERGYKVMLDMHQDVYSGAITPEGNSGNGAGAIGNGAPAWATYMDGLPVEPQPRWELYYIQPGVMRAFDNFWNTTGKHPELVEHYAKAWRAVADRFADNDAVVAYDLMNEPFGGSLQGPAFEAGPLAAMYQRTTDAIRQVDQDTWVCVAPQAIGVNQGLPSGLTKIDDPRAGQQRIAYCPHLYPLPLDIGDGHEGLARTLTDVTIDAWRASTAHTARVLGDVPIILGEFGLDTTLPGARDYIERVYGTAREMGAGVSYWSSDPGPWGPYLPDGTQTLLVDTLNKPYPRAVAGTPTEWSSTSDRLQLTIEPDAAITAPTEIYLPEAGFPGDVHVEGADVVGWDRQSRLLTVRTPADSGNVTVTVTPAA
Km [1]: 700 µM
kcat [1]: 0.13 s⁻¹
Km [2]: 680 µM
kcat [2]: 0.19 s⁻¹
kcat/Km [3]: 186 M⁻¹ s⁻¹
kcat/Km [4]: 279 M⁻¹ s⁻¹

B2: Endoglycoceramidase II (Rhodococcus sp), A0ACD6B832 D314Y (protein)
chain: B1 chain with D314Y, S334N
kcat/Km [5]: 845 M⁻¹ s⁻¹
kcat/Km [6]: 443 M⁻¹ s⁻¹
Km [7]: 580 µM
kcat [7]: 0.49 s⁻¹
Km [8]: 1600 µM
kcat [8]: 0.7 s⁻¹

B3: Endoglycoceramidase II (Rhodococcus sp), A0ACD6B832 P394S (protein)
chain: B1 chain with S334N, P394S
kcat/Km [9]: 319 M⁻¹ s⁻¹
kcat/Km [10]: 660 M⁻¹ s⁻¹
Km [11]: 690 µM
kcat [11]: 0.22 s⁻¹
Km [12]: 500 µM
kcat [12]: 0.33 s⁻¹

B4: Endoglycoceramidase II (Rhodococcus sp), A0ACD6B832 A153T,D314Y (protein)
chain: B1 chain with A153T, D314Y, S334N
kcat/Km [13]: 1110 M⁻¹ s⁻¹
kcat/Km [14]: 407 M⁻¹ s⁻¹
Km [15]: 270 µM
kcat [15]: 0.3 s⁻¹
Km [16]: 1600 µM
kcat [16]: 0.64 s⁻¹

B5: Endoglycoceramidase II (Rhodococcus sp), A0ACD6B832 A153T,D314Y,R177H (protein)
chain: B1 chain with A153T, R177H, D314Y, S334N
kcat/Km [17]: 350 M⁻¹ s⁻¹
kcat/Km [18]: 490 M⁻¹ s⁻¹
Km [19]: 800 µM
kcat [19]: 0.28 s⁻¹
Km [20]: 490 µM
kcat [20]: 0.24 s⁻¹
